Experimental data as given in article PMC3542976.
Like-named read-outs stand apart in the source and are kept apart here.

B1: r(TSA3)/drd(BS) A3-bulged chimeric duplex (mixed)
RNA: GGGAGAGGCAAGUCGUUCGGUCGCGUUCGCAAAUGUCGUCGCGUCUUGUAUGCCACUGUACCC
DNA: GGGTACAGTGGCATACAAGACGCGACGACAGCGAACGCGACCGAACGACTTGCCTCTCCC
modifications: strand 2 is DNA22-RNA16-DNA22 (RNA at 23-38)
B2: r(TSA6)/drd(BS) A6-bulged chimeric duplex (mixed)
RNA: GGGAGAGGCAAGUCGUUCGGUCGCGUUCGCAAAAAAUGUCGUCGCGUCUUGUAUGCCACUGUACCC
DNA: B1 DNA
modifications: strand 2 is DNA22-RNA16-DNA22 (RNA at 23-38)

Experiments:
PKR K296R full length = PKR K296R full length (UniProt P19525 1-551, K296R); assay: EMSA
p20 (dsRBD of PKR) [1] = target: T1, p20 (dsRBD of PKR) (UniProt P19525 1-184); assay: SAXS
p20 (dsRBD of PKR) [2] = target: T1, p20 (dsRBD of PKR); assay: SAXS; remark: listed apart in the source

Sequence of PKR K296R full length (P19525 whole entry K296R): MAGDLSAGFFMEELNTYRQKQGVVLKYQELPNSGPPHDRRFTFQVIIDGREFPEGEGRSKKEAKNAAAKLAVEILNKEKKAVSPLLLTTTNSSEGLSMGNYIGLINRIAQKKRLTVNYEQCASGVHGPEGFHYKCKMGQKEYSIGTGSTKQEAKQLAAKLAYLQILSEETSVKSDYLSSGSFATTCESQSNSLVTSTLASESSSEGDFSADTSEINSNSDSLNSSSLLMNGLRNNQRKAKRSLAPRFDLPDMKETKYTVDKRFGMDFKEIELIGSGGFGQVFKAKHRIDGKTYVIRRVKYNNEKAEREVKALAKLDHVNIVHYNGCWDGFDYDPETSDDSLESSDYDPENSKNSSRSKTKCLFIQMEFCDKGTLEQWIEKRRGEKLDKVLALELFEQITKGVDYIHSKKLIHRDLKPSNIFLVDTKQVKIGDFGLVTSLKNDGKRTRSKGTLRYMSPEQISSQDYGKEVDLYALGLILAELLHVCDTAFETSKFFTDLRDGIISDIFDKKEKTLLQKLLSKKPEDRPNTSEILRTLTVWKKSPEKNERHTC
T1 sequence (P19525 1-184): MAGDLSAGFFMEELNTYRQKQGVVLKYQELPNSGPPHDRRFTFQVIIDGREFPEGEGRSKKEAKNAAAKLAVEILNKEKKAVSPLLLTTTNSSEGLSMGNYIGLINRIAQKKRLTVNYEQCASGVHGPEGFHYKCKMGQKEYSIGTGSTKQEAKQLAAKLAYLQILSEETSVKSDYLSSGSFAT

Binder	binding result (PKR K296R full length)	binding result (p20 (dsRBD of PKR) [1])	binding result (p20 (dsRBD of PKR) [2])
B1	binds	binds	–
B2	binds	–	binds
